According to patent US20250025535A1, “A COMPOSITION COMPRISING NANOSIZED ACTIVE PHARMACEUTICAL INGREDIENT” (NANOFORM FINLAND OYJ, priority 2021, published 2025):

Assay: Sedimentation of insulin suspension in fish oil
Type: physicochemical
Conditions: 10 mg in 1 ml fish oil, room temperature, t=0, 30 min, 60 min, 24 h; compared with bulk insulin
Description: A: t=0 min; B: t=30 min; C: t=60 min; D: t=24 h.
Nanosized insulin or bulk insulin (10 mg, Sigma) was added to 1 ml of fish oil, mixed by vortexing and allowed to stand at room temperature.

insulin [nanosized insulin]
sedimentation in fish oil as a function of time: significantly slower
